The record followed here is PMC12373895.

Holding throughout (test): ELONA
Series [1] deals with T1, ERA GTPase (Staphylococcus aureus, UniProt Q2FY06 1-299).
T1 sequence: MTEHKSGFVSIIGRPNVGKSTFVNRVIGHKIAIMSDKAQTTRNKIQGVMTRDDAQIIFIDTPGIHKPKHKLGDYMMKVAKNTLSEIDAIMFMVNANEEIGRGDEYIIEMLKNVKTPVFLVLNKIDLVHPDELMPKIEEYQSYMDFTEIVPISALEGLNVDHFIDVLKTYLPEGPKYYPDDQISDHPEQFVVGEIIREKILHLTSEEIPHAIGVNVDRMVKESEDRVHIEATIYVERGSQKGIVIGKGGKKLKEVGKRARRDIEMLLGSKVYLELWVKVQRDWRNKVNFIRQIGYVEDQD

The target of a further series is T2, ERA deltaKH (Staphylococcus aureus, UniProt Q2FY06 1-202).
T2 sequence: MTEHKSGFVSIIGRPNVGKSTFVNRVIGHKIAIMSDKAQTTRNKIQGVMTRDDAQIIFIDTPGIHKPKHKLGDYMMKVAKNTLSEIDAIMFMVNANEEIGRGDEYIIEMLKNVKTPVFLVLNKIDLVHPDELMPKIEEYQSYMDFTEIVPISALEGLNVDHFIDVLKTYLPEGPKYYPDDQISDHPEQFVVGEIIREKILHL

Series [2] addresses T1, ERA GTPase. This is another data set of the same source.
In series [3] the target is T3, 1F8 (Chagas antigenic protein) (Trypanosoma cruzi, UniProt P07749 1-211).
T3 sequence: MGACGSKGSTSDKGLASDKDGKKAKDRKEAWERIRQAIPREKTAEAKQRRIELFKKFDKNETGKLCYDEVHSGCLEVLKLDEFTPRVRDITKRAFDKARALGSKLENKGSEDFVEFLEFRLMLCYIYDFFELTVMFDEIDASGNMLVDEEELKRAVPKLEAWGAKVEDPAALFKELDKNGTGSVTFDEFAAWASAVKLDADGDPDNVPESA

The molecule TACTAGCCCTACCTGTACTCTCGAGCCGATTTTAAGGATC (ssDNA) [AptERA 2 (40 nt)] returned a Kd with ERA GTPase [1] of 243 ± 16 nM. Further, the binding result (with ERA deltaKH; in series [3]) was “no binding” each time. Also, the “apparent K (half saturation)” value with ERA GTPase [2] was found to be 185 ± 3 nM.

A word on the Kd: it is the concentration at which binding is half-saturated. Low values mean higher affinity, high ones lower affinity.
